Laboratory results taken from PMC6529630 (mBio, 2019).

Experiments:
[1] = biological target: T1, GlnA4 (gamma-glutamylethanolamide synthetase) (Streptomyces coelicolor, UniProt O88070); assay: Pi-release inhibition assay with purified His-GlnA4, Ki from IC50 (Cheng-Prusoff); weak; assay type: biochemical
T1 construct: His-GlnA4
T1 sequence (O88070 1-462): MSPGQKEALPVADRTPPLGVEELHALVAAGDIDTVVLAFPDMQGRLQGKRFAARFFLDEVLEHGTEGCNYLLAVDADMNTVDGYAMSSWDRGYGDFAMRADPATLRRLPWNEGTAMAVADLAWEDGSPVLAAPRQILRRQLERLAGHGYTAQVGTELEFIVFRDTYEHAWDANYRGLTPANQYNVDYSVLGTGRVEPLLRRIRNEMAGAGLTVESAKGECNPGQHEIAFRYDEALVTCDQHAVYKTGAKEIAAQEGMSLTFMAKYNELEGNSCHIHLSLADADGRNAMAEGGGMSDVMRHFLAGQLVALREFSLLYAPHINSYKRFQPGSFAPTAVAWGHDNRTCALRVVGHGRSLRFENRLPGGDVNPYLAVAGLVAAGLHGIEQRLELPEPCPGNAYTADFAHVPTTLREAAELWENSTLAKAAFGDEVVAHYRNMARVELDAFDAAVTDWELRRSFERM

[2] = biological target: T1, GlnA4 (gamma-glutamylethanolamide synthetase); assay: HPLC/ESI-MS detection of reaction product of purified His-GlnA4; assay type: biochemical
[3] = substrate: NCCO; assay: purified protein; conditions: ATP, Mg2+ (MgCl2)
[4] = substrate: N[C@@H](CCC(=O)O)C(=O)O; assay: purified protein; conditions: ATP, Mg2+ (MgCl2)
[5] = substrate: Nc1ncnc2c1ncn2[C@@H]1O[C@H](COP(=O)(O)OP(=O)(O)OP(=O)(O)O)[C@@H](O)[C@H]1O; assay: Pi-release enzyme kinetics with purified His-GlnA4; assay type: biochemical, Streptomyces coelicolor; conditions: Mg2+ (MgCl2)

`CS(=N)(=O)CC[C@H](N)C(=O)O` (some centres unmarked) [methionine sulfoximine] was tested, and the Ki [1] was ~11 mM.

For `N[C@@H](CCC(=O)NCCO)C(=O)O` [gamma-glutamylethanolamide], the “HPLC/ESI-MS detection of reaction product of purified His-GlnA4” value [2] was “GlnA4 is a functional gamma-glutamylethanolamide synthetase that uses glutamate and ethanolamine as substrates to generate gamma-glutamylethanolamide”.

B1: GlnA4 (gamma-glutamylethanolamide synthetase) (Streptomyces coelicolor A3(2)) (protein)
chain: T1 sequence (O88070 1-462)
notes: His-GlnA4
B1 was tested, and the Km [3] was 470 µM, the Km [4] was 85410 µM and the Km [5] was 2500 µM.
